Test results as given in patent publication CN102875678A (WUXI PROGRAMMED ARTIFICIAL MOLECULAR EVOLUTION CO LTD, dated 2013).
Each block holds one molecule with its values, some of them ahead of it.

Tests used:
重组人CD20蛋白 (human) [1] = molecular target: 重组人CD20蛋白 (human) (UniProt P11836); experiment: Friguet method, full-length antibody and human CD20
重组人CD20蛋白 (human) [2] = molecular target: 重组人CD20蛋白 (human) (UniProt P11836); experiment: Friguet method, Fab and human CD20 in solution, ELISA on immobilised human CD20
重组人CD20蛋白 = molecular target: T1, 重组人CD20蛋白 (human, UniProt P11836 1-297, limits assumed); experiment: Friguet method, full-length antibody and human CD20
T1 construct: also called hCD20
T1 sequence (looked up): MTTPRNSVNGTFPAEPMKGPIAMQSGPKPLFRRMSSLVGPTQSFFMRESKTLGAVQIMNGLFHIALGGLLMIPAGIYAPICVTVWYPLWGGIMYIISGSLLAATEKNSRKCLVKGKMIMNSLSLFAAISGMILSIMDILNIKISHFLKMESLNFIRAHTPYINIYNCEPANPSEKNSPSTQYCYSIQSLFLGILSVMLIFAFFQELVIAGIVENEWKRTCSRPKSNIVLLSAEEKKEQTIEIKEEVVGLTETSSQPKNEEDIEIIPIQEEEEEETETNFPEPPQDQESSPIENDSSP

[3] = molecular target: hCD20 on B cell lines (Ramos, DHL-4, Daudi, Raji) (human) (UniProt P11836); experiment: cell-based or functional assay

- Kd (重组人CD20蛋白 (human) [2]): 1830 pM
Molecule: C2B8 Fab

- Kd (重组人CD20蛋白): 121 pM
- ADCC靶细胞裂解 (Raji细胞, MNC效应细胞, 51Cr释放) [3]: 35%
- CDC细胞裂解比例 (Daudi和Raji细胞, 10μg/ml抗体, 人血清) [3]: > 80%
Molecule: 2F2 (即HuMax-CD20), full length (antibody)

The next lines start with the molecule.

Molecule: C2B8 (即Rituxan), full length (antibody)
- Kd (重组人CD20蛋白 (human) [1]): 3510 pM

B1: 全长8G3 (F8G3) (antibody)
chain 1: EVQLVESGGGLVQPGESLRLSCAGSGFTFNDYAMHWVRQMPGKGLEWVSTIYPW
chain 2: EIVLTQSPATLSLSPGERATLSCRASQFVGFYIHWYQQKPGQAPRLLIYAASERATGVPSRFSGSGSGTDFTLTISSLEPEDFAVYYCQQWLNNPFTFGQGTRLEII
- Kd (重组人CD20蛋白): 37 pM
